One data set addresses IMP3 (IGF2BP3) (UniProt O00425 1-579). Briefly: MST; 5 mM Mg2+. As to conditions: protein: recombinant; tags: His-SUMO; label: 3' pCp-Cy5; pseudoknot (SL1, SL2, SL3).
Data set [1] concerns the target ZAP-S (short isoform of zinc-finger antiviral protein) (human, UniProt Q7Z2W4-2 1-699). The data set is described as follows: MST; 5 mM Mg2+. The following applies: protein: recombinant; tags: N-terminal 6xHis-SUMO; label: 3' pCp-Cy5; pseudoknot (SL1, SL2, SL3).

Sequence of ZAP-S (short isoform of zinc-finger antiviral protein) (Q7Z2W4 other isoform, or with tags, fused parts or gaps): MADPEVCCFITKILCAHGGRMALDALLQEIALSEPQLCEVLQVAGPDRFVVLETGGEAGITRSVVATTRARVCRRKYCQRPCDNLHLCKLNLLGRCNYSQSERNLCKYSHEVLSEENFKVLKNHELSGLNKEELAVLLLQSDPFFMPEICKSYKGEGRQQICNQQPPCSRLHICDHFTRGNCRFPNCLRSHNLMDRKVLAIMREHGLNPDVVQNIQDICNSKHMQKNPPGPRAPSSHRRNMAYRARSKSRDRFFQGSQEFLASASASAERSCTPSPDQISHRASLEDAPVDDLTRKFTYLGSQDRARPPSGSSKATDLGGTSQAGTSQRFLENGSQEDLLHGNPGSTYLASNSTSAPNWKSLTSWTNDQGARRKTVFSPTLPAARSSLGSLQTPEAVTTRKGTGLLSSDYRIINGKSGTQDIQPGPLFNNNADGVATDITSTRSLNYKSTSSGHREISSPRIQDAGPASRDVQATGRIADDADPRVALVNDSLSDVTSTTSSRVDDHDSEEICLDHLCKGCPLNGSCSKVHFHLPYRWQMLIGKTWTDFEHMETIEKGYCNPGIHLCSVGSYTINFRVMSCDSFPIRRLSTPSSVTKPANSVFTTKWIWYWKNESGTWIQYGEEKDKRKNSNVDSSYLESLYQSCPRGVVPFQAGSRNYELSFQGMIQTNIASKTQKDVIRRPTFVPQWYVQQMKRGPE
Sequence of IMP3 (IGF2BP3) (O00425 whole entry, canonical isoform): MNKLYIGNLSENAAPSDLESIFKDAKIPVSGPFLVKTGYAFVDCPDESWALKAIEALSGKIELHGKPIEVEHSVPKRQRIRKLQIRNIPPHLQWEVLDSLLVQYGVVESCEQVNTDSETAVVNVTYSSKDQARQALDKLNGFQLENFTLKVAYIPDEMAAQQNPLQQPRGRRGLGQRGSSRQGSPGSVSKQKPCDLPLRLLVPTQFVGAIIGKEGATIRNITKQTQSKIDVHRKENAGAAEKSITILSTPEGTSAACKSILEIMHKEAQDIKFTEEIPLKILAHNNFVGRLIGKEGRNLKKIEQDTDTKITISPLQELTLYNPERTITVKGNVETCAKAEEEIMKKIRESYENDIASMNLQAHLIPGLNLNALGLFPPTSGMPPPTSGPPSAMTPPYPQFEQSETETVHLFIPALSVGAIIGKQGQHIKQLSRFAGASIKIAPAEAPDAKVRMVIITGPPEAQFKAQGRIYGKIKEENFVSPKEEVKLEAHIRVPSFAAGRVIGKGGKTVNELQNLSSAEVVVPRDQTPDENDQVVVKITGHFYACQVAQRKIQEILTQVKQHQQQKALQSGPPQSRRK

B1: Full PRF (WT SARS-CoV-2 -1PRF RNA) (structured_RNA)
RNA: UCGUUUUUAAACGGGUUUGCGGUGUAAGUGCAGCCCGUCUUACACCGUGCGGCACAGGCACUAGUACUGAUGUCGUAUACAGGGCUUUUGACAUCUACAAUGAUAAAGUAGCUG
For the molecule B1, the Kd came out at 806 ± 252 nM with IMP3 (IGF2BP3) and 110 ± 9 nM in data set [1].

Usually Kd stands for a measure of binding affinity in units of concentration.

For the origin of these results see publication PMC8664833.
